Earlier results on one substance are cited in article PMC5033469.

As a reminder, the Kd is a measure of binding affinity in units of concentration.

In the series the target is CD11c I domain (Homo sapiens) (UniProt P20702).
Sequence of CD11c I domain (Homo sapiens) (P20702 165-339): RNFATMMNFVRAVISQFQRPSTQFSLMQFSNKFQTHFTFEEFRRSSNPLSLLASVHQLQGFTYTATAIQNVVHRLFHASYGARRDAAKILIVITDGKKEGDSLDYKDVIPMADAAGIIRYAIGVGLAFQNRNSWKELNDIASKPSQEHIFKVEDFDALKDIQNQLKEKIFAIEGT

Sequence of fibrinogen (P02671 36-866): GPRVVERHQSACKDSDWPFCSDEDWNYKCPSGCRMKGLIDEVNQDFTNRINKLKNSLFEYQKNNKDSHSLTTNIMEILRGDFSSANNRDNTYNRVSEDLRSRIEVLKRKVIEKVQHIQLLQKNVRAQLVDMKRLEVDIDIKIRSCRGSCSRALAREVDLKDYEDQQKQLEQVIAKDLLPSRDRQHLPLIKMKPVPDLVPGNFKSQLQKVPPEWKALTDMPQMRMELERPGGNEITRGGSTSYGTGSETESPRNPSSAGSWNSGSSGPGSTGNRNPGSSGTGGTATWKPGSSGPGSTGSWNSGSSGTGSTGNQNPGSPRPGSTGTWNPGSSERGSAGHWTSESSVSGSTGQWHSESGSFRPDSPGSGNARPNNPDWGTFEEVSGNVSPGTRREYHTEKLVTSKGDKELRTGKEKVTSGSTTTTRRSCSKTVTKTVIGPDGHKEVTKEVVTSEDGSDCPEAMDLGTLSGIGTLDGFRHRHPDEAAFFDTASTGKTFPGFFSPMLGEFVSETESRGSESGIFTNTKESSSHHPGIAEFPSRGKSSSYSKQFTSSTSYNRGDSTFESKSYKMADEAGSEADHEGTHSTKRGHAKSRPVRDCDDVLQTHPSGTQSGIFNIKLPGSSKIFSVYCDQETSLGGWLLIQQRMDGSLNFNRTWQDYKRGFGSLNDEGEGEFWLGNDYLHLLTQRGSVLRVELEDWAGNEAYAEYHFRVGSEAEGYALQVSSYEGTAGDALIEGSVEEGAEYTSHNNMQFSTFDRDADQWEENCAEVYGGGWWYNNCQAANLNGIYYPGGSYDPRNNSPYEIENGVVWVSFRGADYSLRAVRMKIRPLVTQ
Sequence of fibrinogen (P02675 45-491, further chain): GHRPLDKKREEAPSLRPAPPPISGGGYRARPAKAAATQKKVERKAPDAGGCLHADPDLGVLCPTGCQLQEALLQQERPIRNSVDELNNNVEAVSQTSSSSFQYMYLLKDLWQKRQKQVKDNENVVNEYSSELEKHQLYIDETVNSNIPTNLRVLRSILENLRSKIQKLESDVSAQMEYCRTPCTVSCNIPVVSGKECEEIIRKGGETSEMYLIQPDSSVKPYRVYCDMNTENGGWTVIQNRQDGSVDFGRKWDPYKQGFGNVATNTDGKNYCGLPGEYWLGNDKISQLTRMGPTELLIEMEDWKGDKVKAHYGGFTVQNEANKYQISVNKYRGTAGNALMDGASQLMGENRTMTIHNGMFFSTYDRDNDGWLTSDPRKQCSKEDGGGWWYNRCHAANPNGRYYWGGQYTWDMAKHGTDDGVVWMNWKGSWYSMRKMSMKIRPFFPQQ
Sequence of fibrinogen (P02679 27-453, further chain): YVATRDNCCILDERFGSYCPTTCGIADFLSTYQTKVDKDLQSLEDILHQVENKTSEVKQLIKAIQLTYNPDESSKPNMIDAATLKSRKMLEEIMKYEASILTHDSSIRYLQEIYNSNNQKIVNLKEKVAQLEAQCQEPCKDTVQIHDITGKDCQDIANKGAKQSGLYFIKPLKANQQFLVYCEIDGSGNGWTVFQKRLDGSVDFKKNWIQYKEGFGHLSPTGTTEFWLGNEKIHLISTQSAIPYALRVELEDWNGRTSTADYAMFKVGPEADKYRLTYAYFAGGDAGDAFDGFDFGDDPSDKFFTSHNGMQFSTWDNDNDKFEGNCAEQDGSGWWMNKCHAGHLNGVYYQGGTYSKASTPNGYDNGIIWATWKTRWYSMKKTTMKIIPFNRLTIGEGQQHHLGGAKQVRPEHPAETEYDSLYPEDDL

With fibrinogen (from UniProt P02671), the Kd is 50 µM.
